Tests used:
FAR-RXRalpha heterodimer [1] = target: T1, FAR-RXRalpha heterodimer (Rattus norvegicus (FAR) / Homo sapiens …, UniProt Q62735;P19793 Q62735:1-469,P19793:1-462); assay: EMSA; cooperative binding; conditions: tags: rabbit reticulocyte lysate TNT, Promega; label: 32P (Klenow)
Method: (§1) It was next sought to determine the DNA binding properties of the FAR-RXRα complex. Because FAR and EcR share 100% sequence identity in the DNA recognition helix (P-box, Cys^141-Lys^145), it was examined whether the FAR-RXRα complex could recognize the hsp27 […] (EcRE; Yao et al., *Cell* 71:63–72 (1992)). Electrophoretic mobility shift analysis was performed using [^32P]-labeled DNA and in vitro translated FAR and RXRα. Proteins used in electrophoretic mobility shift assays were prepared by translation in a rabbit reticulocyte lysate system (TNT, Promega). Proteins (1 µl) were incubated for 20 minutes at room temperature with 100,000 cpm of Klenow-labeled probes in 10 mM Tris pH 8, 100 mM KCl, 6% glycerol, 0.05% NP-40, 1 mM DTT, 100 ng/µl poly dI dC and then electrophoresed through a 5% polyacrylamide gel in 0.5×TBE. The gel was autoradiographed for 1.5 hours with an intensifying screen.

FAR-RXRalpha heterodimer [2] = target: T1, FAR-RXRalpha heterodimer; assay: EMSA; mutated element not recognized; conditions: tags: rabbit reticulocyte lysate TNT, Promega; label: 32P (Klenow)
Method: as §1

RXRalpha = RXRalpha (UniProt P19793 P19793:1-462); assay: EMSA; RXRalpha alone, no high affinity binding; conditions: tags: rabbit reticulocyte lysate TNT, Promega; GenBank X52773 cited for human RXRalpha; label: 32P (Klenow)
Method: as §1

FAR-RXRalpha heterodimer [3] = target: T1, FAR-RXRalpha heterodimer; assay: cell_activity; 50 uM JH III; 76-fold with 100 nM LG69, 212-fold with both; parental MTV reporter lacking EcREs not activated by JH III; conditions: tags: CMV expression vectors in CV-1 cells
Method: Thus, with reference to FIG. 5A, CV-1 cells were transiently transfected with hsp27-EcRE×5 MTV-luciferase alone (−) or with expression vectors for rat FAR and/or human RXRα. Reporter activity was assayed after treating cells with or without 50 µM JH III.

FAR-RXRalpha heterodimer [4] = target: T1, FAR-RXRalpha heterodimer; assay: EMSA; half-site substitutions abolish binding; conditions: tags: rabbit reticulocyte lysate TNT, Promega; label: 32P (Klenow)
Method: as §1

T1 sequence (Q62735 whole entry, chain 1 of 2): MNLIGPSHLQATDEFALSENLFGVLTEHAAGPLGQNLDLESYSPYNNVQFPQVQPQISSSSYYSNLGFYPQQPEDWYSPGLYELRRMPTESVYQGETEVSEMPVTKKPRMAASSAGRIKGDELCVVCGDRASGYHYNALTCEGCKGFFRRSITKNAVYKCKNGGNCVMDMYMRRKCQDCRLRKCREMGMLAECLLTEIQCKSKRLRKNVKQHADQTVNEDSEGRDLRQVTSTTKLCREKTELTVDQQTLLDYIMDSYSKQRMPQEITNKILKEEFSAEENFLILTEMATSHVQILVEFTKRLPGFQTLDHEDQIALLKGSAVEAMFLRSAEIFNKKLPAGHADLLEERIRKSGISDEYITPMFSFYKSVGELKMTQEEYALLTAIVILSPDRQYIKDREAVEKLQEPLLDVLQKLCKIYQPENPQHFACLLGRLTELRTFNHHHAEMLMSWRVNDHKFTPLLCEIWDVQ
T1 sequence (P19793 whole entry, chain 2 of 2): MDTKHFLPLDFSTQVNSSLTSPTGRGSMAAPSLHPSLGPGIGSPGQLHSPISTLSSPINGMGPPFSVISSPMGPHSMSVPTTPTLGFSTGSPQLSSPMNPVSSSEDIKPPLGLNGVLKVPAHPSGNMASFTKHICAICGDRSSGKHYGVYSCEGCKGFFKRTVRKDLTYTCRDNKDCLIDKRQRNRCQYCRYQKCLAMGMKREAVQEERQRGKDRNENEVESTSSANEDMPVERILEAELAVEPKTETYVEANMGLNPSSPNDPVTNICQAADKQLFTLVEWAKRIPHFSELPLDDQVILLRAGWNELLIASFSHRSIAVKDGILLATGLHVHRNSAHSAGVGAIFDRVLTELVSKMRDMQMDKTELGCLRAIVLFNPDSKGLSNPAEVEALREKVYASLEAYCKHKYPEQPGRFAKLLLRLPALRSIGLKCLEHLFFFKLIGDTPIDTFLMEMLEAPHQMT
Sequence of RXRalpha (P19793 whole entry, one chain of several): as the sequence (P19793 whole entry, chain 2 of 2) above

B1: idealized IR1 (dsDNA)
DNA 1: AGGTCAATGACCT
DNA 2: AGGTCATTGACCT
binding result (FAR-RXRalpha heterodimer [1]): binds

B2: EcREm (mutated hsp27-EcRE) (dsDNA)
DNA 1: CGTTCAATGCACA
DNA 2: TGTGCATTGAACG
binding result (FAR-RXRalpha heterodimer [2]): no binding

B3: hsp27-EcRE (dsDNA)
DNA 1: GGTTCAATGCACT
DNA 2: AGTGCATTGAACC
binding result (RXRalpha): no binding

B4: hsp27-EcRE x5 MTV-luciferase reporter (dsDNA)
DNA 1: GGTTCAATGCACT
DNA 2: AGTGCATTGAACC
activity (FAR-RXRalpha heterodimer [3]): 17 fold activation

B5: IR1m (dsDNA)
DNA 1: AGAACAATGTTCT
DNA 2: AGAACATTGTTCT
binding result (FAR-RXRalpha heterodimer [4]): no binding

— patent publication US6005086, “Farnesoid activated receptor polypeptides, and nucleic acid encoding the same” (The Salk Institute for Biological Studies)
